Source: the supplement of paper PMC9112550, “Optimization of the antimicrobial peptide Bac7 by deep mutational scanning” (BMC Biology, 2022)

System: Escherichia coli TOP10
Experiment: shrunken log2 fold change of peptide-encoding DNA abundance (4.5 h post-induction vs induction); higher = less antimicrobial activity (less host growth inhibition)
Conditions: time post-induction: 4.5 h; library: site-saturation at positions 5, 18, 19, 20
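Note: peptides expressed intracellularly from a pBAD plasmid library in pooled LB shake-flask culture, induced with 0.3% L-arabinose, DNA abundance read by NGS, three biological replicates, DESeq2 with apeglm shrinkage.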

In order of rising “shrunken log2 fold change” value:
1. RRIRDRPPRLPRPRPRPGIHPRP  -0.89
2. RRIRDRPPRLPRPRPRPFYIPRP  -0.796
3. RRIRDRPPRLPRPRPRPFYNPRP  -0.732
4. RRIRDRPPRLPRPRPRPFSMPRP  -0.506
5. RRIRDRPPRLPRPRPRPFPNPRP  -0.503
6. RRIRDRPPRLPRPRPRPAYKPRP  -0.456
7. RRIRDRPPRLPRPRPRPHHPPRP  -0.408
8. RRIRDRPPRLPRPRPRPHTNPRP  -0.367
9. RRIRDRPPRLPRPRPRPHTIPRP  -0.351
10. RRIRDRPPRLPRPRPRPCTLPRP  -0.302
11. RRIRDRPPRLPRPRPRPHLMPRP  -0.283
12. RRIRDRPPRLPRPRPRPCPPPRP  -0.249
13. RRIRDRPPRLPRPRPRPCHTPRP  -0.234
14. RRIRDRPPRLPRPRPRPHYMPRP  -0.231
15. RRIRDRPPRLPRPRPRPFHFPRP  -0.208
16. RRIRDRPPRLPRPRPRPIFRPRP  -0.202
17. RRIRDRPPRLPRPRPRPHYGPRP  -0.192
18. RRIRDRPPRLPRPRPRPFFIPRP  -0.191
19. RRIRDRPPRLPRPRPRPFAMPRP  -0.188
20. RRIRDRPPRLPRPRPRPFQGPRP  -0.181
21. RRIRDRPPRLPRPRPRPFANPRP  -0.177
22. RRIRDRPPRLPRPRPRPHYLPRP  -0.159
23. RRIRDRPPRLPRPRPRPCCVPRP  -0.158
24. RRIRDRPPRLPRPRPRPHPIPRP  -0.152
25. RRIRDRPPRLPRPRPRPHFKPRP  -0.148
26. RRIRDRPPRLPRPRPRPGRYPRP  -0.134
27. RRIRDRPPRLPRPRPRPFHSPRP  -0.13
28. RRIRDRPPRLPRPRPRPCIPPRP  -0.123
29. RRIRDRPPRLPRPRPRPHKYPRP  -0.116
30. RRIRDRPPRLPRPRPRPFPPPRP  -0.113
31. RRIRDRPPRLPRPRPRPCWMPRP  -0.0868
32. RRIRDRPPRLPRPRPRPHDMPRP  -0.0819
33. RRIRDRPPRLPRPRPRPHETPRP  -0.0736
34. RRIRDRPPRLPRPRPRPGHVPRP  -0.0651
35. RRIRDRPPRLPRPRPRPFICPRP  -0.0606
36. RRIRDRPPRLPRPRPRPFQQPRP  -0.0599
37. RRIRDRPPRLPRPRPRPFPMPRP  -0.0572
38. RRIRDRPPRLPRPRPRPHISPRP  -0.0535
39. RRIRDRPPRLPRPRPRPDTNPRP  -0.0518
40. RRIRDRPPRLPRPRPRPGKDPRP  -0.0503
41. RRIRDRPPRLPRPRPRPFAIPRP  -0.0496
42. RRIRDRPPRLPRPRPRPCPKPRP  -0.048
43. RRIRDRPPRLPRPRPRPEGHPRP  -0.0429
44. RRIRDRPPRLPRPRPRPCSLPRP  -0.0409
45. RRIRDRPPRLPRPRPRPHEKPRP  -0.0396
46. RRIRDRPPRLPRPRPRPIATPRP  -0.0393
47. RRIRDRPPRLPRPRPRPCVCPRP  -0.0348
48. RRIRDRPPRLPRPRPRPIDQPRP  -0.0222
49. RRIRDRPPRLPRPRPRPDWFPRP  -0.0209
50. RRIRDRPPRLPRPRPRPFMSPRP  -0.0203
51. RRIRDRPPRLPRPRPRPDMSPRP  -0.0165
52. RRIRDRPPRLPRPRPRPGNYPRP  -0.0159
53. RRIRDRPPRLPRPRPRPFERPRP  -0.0141
54. RRIRDRPPRLPRPRPRPIEKPRP  -0.0135
55. RRIRDRPPRLPRPRPRPEAYPRP  -0.0102
56. RRIRDRPPRLPRPRPRPHCCPRP  -0.00968
57. RRIRDRPPRLPRPRPRPHCIPRP  -0.00742
58. RRIRDRPPRLPRPRPRPEEIPRP  -0.0062
59. RRIRDRPPRLPRPRPRPAVPPRP  -0.00426
60. RRIRDRPPRLPRPRPRPIIFPRP  -0.00292
61. RRIRDRPPRLPRPRPRPEWWPRP  -0.00197
62. RRIRDRPPRLPRPRPRPEDVPRP  -0.0018
63. RRIRDRPPRLPRPRPRPHRCPRP  -0.00141
64. RRIRDRPPRLPRPRPRPAYVPRP  -0.00133
65. RRIRDRPPRLPRPRPRPGKTPRP  -0.00088
66. RRIRDRPPRLPRPRPRPFWSPRP  0.000201
67. RRIRDRPPRLPRPRPRPICKPRP  0.00282
68. RRIRDRPPRLPRPRPRPGTFPRP  0.00435
69. RRIRDRPPRLPRPRPRPIILPRP  0.0057
70. RRIRDRPPRLPRPRPRPHRFPRP  0.0062
71. RRIRDRPPRLPRPRPRPAYCPRP  0.00854
72. RRIRDRPPRLPRPRPRPHRKPRP  0.00895
73. RRIRDRPPRLPRPRPRPCRMPRP  0.0112
74. RRIRDRPPRLPRPRPRPFNIPRP  0.0125
75. RRIRDRPPRLPRPRPRPGIPPRP  0.016
76. RRIRDRPPRLPRPRPRPCVLPRP  0.0171
77. RRIRDRPPRLPRPRPRPCSRPRP  0.0202
78. RRIRDRPPRLPRPRPRPCGMPRP  0.0207
79. RRIRDRPPRLPRPRPRPCLNPRP  0.0235
80. RRIRDRPPRLPRPRPRPHDKPRP  0.0278
81. RRIRDRPPRLPRPRPRPDAYPRP  0.0301
82. RRIRDRPPRLPRPRPRPGVYPRP  0.0379
83. RRIRDRPPRLPRPRPRPGETPRP  0.0408
84. RRIRDRPPRLPRPRPRPCRVPRP  0.0479
85. RRIRDRPPRLPRPRPRPDVDPRP  0.0482
86. RRIRDRPPRLPRPRPRPFRGPRP  0.0499
87. RRIRDRPPRLPRPRPRPDWWPRP  0.0503
88. RRIRDRPPRLPRPRPRPDEQPRP  0.0528
89. RRIRDRPPRLPRPRPRPFVAPRP  0.0541
90. RRIRDRPPRLPRPRPRPHAGPRP  0.0575
91. RRIRDRPPRLPRPRPRPCVDPRP  0.0635
92. RRIRDRPPRLPRPRPRPDMFPRP  0.0667
93. RRIRDRPPRLPRPRPRPEMAPRP  0.0683
94. RRIRDRPPRLPRPRPRPELQPRP  0.072
95. RRIRDRPPRLPRPRPRPDDKPRP  0.0802
96. RRIRDRPPRLPRPRPRPFFVPRP  0.0823
97. RRIRDRPPRLPRPRPRPHWRPRP  0.0876
98. RRIRDRPPRLPRPRPRPICGPRP  0.0876
99. RRIRDRPPRLPRPRPRPFACPRP  0.107
100. RRIRDRPPRLPRPRPRPDSSPRP  0.109
101. RRIRDRPPRLPRPRPRPFFHPRP  0.119
102. RRIRDRPPRLPRPRPRPDEAPRP  0.12
103. RRIRDRPPRLPRPRPRPDTLPRP  0.125
104. RRIRDRPPRLPRPRPRPGWLPRP  0.127
105. RRIRDRPPRLPRPRPRPGTHPRP  0.129
106. RRIRDRPPRLPRPRPRPEISPRP  0.134
107. RRIRDRPPRLPRPRPRPFWDPRP  0.148
108. RRIRDRPPRLPRPRPRPASGPRP  0.15
109. RRIRDRPPRLPRPRPRPGCHPRP  0.15
110. RRIRDRPPRLPRPRPRPATTPRP  0.163
111. RRIRDRPPRLPRPRPRPDWCPRP  0.163
112. RRIRDRPPRLPRPRPRPEFIPRP  0.163
113. RRIRDRPPRLPRPRPRPCADPRP  0.167
114. RRIRDRPPRLPRPRPRPDIFPRP  0.171
115. RRIRDRPPRLPRPRPRPCSSPRP  0.187
116. RRIRDRPPRLPRPRPRPIAEPRP  0.195
117. RRIRDRPPRLPRPRPRPGWCPRP  0.201
118. RRIRDRPPRLPRPRPRPICYPRP  0.204
119. RRIRDRPPRLPRPRPRPFALPRP  0.206
120. RRIRDRPPRLPRPRPRPHGAPRP  0.211
121. RRIRDRPPRLPRPRPRPERMPRP  0.216
122. RRIRDRPPRLPRPRPRPGLCPRP  0.224
123. RRIRDRPPRLPRPRPRPGSHPRP  0.235
124. RRIRDRPPRLPRPRPRPFFDPRP  0.266
125. RRIRDRPPRLPRPRPRPGDQPRP  0.282
126. RRIRDRPPRLPRPRPRPGDPPRP  0.293
127. RRIRDRPPRLPRPRPRPGWFPRP  0.297
128. RRIRDRPPRLPRPRPRPELPPRP  0.302
129. RRIRDRPPRLPRPRPRPICWPRP  0.318
130. RRIRDRPPRLPRPRPRPICNPRP  0.324
131. RRIRDRPPRLPRPRPRPERFPRP  0.361
132. RRIRDRPPRLPRPRPRPDQDPRP  0.399
133. RRIRDRPPRLPRPRPRPAWNPRP  0.428
134. RRIRDRPPRLPRPRPRPETNPRP  0.443
135. RRIRDRPPRLPRPRPRPDENPRP  0.511
136. RRIRDRPPRLPRPRPRPGFCPRP  0.567
137. RRIRDRPPRLPRPRPRPCCWPRP  0.582
138. RRIRDRPPRLPRPRPRPDAVPRP  0.585
139. RRIRDRPPRLPRPRPRPASAPRP  0.616
140. RRIRDRPPRLPRPRPRPGHAPRP  0.648
141. RRIRDRPPRLPRPRPRPAWGPRP  0.769
142. RRIRDRPPRLPRPRPRPGRWPRP  0.797
143. RRIRDRPPRLPRPRPRPETPPRP  0.904
144. RRIRDRPPRLPRPRPRPDCFPRP  1.04
145. RRIRDRPPRLPRPRPRPGASPRP  1.08
146. RRIRDRPPRLPRPRPRPGEAPRP  1.1
147. RRIRDRPPRLPRPRPRPCCGPRP  1.13
148. RRIRDRPPRLPRPRPRPECEPRP  1.53
149. RRIRDRPPRLPRPRPRPEAQPRP  1.66
150. RRIRDRPPRLPRPRPRPECGPRP  1.71
